The values below come from patent publication US20180311300A1 (published 2018).

Experiment [1] deals with T1, MT1-MMP hemopexin domain (UniProt P50281 319-511).
T1 construct: domain: hemopexin domain; also called hemopexin of MT1-MMP; membrane type 1 metalloprotease
As to the kind of experiment: fluorescence polarization (anisotropy) assay on MT1-MMP hemopexin domain; grade A = Ki <50 nM. The procedure:
(§1) Direct Binding Fluorescence Polarization or Anisotropy Assays are performed by titrating a constant concentration of fluorescent tracer (here, the fluoresceinated bicyclic peptide to be studied) with its binding partner (here, the MT1-MMP hemopexin domain). As the concentration of binding partner increases during the titration, the polarization signal changes in proportion to the fraction of bound and unbound material. This allows determination of […] (Kd) quantitatively. Assay data can be fit using standard ligand binding equations.
(§2) The titrant (binding partner) concentration is varied from 0.1 nM up to typically 5 μM. The range is chosen such that the maximum change in fluorescent polarization can be observed. Buffers employed are phosphate buffered saline in the presence of 0.01% Tween. Experiments were run in black 384 well low-bind/low volume plates (Corning 3820), and the fluorescent polarization signal was measured using a BMG Pherastar FS plate reader. Fluorescent tracers referred to in the text are bicyclic peptides that have been fluoresceinated using 5,6-carboxyfluorescein. Fluoresceination may be performed on the N-terminal amino group of the peptide, which is separated from the bicycle core sequence by a sarcosine spacer (usually Sar5). […]

Experiment [2] deals with T1, MT1-MMP hemopexin domain. As to the kind of experiment: fluorescence polarization (anisotropy) assay on MT1-MMP hemopexin domain; grade B = Ki >50 nM and <=100 nM. The protocol:
as §1, §2

Experiment [3] has as its target T1, MT1-MMP hemopexin domain. As to the kind of experiment: fluorescence polarization (anisotropy) assay on MT1-MMP hemopexin domain; grade D = Ki >1,000 nM. The protocol: as §1, §2

Where “and” joins values, the source holds several entries; their conditions need not be identical. Equal values may be shown once. Numbered stars: 1 amine (or outer) side, 2 acyl side, 3 side chain; on linkers, the order of the positions; unused ones are H or OH. Bridge positions count the residues as written; N and C are the ends. Square brackets hold non-standard residues; d marks the D form. Ends that are not written are not given here. Intermediate H = 1,1',1''-(1,7,13-trioxa-4,10,16-triazacyclooctadecane-4,10,16-triyl)tris(2-chloroethan-1-one), O=C(C[*:1])N1CCOCCN(C(=O)C[*:2])CCOCCN(C(=O)C[*:3])CCOCC1; Intermediate D = 1,1',1''-(1,4,7-triazonane-1,4,7-triyl)tris(prop-2-en-1-one), O=C(CC[*:1])N1CCN(C(=O)CC[*:2])CCN(C(=O)CC[*:3])CC1; Intermediate K = 1,3,5-tris(vinylsulfonyl)benzene, O=S(=O)(CC[*:1])c1cc(S(=O)(=O)CC[*:2])cc(S(=O)(=O)CC[*:3])c1; Intermediate C = 1,1',1''-(1,4,7-triazonane-1,4,7-triyl)tris(2-chloroethan-1-one); Intermediate I = 1,4,7-tris(vinylsulfonyl)-1,4,7-triazonane; 1Nal = N[C@@H](Cc1cccc2ccccc12)C(=O)O; Tle = CC(C)(C)[C@H](N)C(=O)O

B1: I-61 (peptide)
peptide: AC[dA]NE[1Nal][dA]CEDFYD[Tle]C
modifications: linker 2-8-15 via Intermediate K
notes: also called peptide 4 cyclised with Intermediate K
Consider B1, for which the Ki with MT1-MMP hemopexin domain [1] was < 50 nM.

B2: I-58 (peptide)
peptide: AC[dA]NE[1Nal][dA]CEDFYD[Tle]C
modifications: linker 2-8-15 via Intermediate H
notes: also called peptide 4 cyclised with Intermediate H
Consider B2, for which the Ki in the experiment with MT1-MMP hemopexin domain [2] is > 50 nM and ≤ 100 nM.

B3: I-55 (peptide)
peptide: AC[dA]NE[1Nal][dA]CEDFYD[Tle]C
modifications: linker 2-8-15 via Intermediate D
notes: also called peptide 4 cyclised with Intermediate D
As for B3, in the experiment with MT1-MMP hemopexin domain [2], the Ki was > 50 nM and ≤ 100 nM.

B4: I-59 (peptide)
peptide: AC[dA]NE[1Nal][dA]CEDFYD[Tle]C
modifications: linker 2-8-15 via Intermediate I
notes: also called peptide 4 cyclised with Intermediate I
Turning to B4, in the experiment with MT1-MMP hemopexin domain [3], the Ki is > 1000 nM.

B5: I-54 (peptide)
peptide: AC[dA]NE[1Nal][dA]CEDFYD[Tle]C
modifications: linker 2-8-15 via Intermediate C
notes: also called peptide 4 cyclised with Intermediate C
For B5, the inhibition constant (Ki) with MT1-MMP hemopexin domain [1] was < 50 nM.
